Experimental data as given in publication PMC8564274 (Signal Transduction and Targeted Therapy, 2021).

What was measured:
[1] = target: T1, prefusion-stabilized ectodomain of the SARS-CoV-2 spike (SARS-CoV-2, WH01, stabilised); experiment: cell-based or functional assay
[2] = target: T1, prefusion-stabilized ectodomain of the …; experiment: BLI; conditions: both partners purified

B1: n3113.1 (VHH)
VHH: EVQLVESGGGLVQPGGSLRLSCAASDSSFYDYEMSWVRQAPGKAQEWIGSMYPSGRTYINPSLKSLVTISRDNSKNTLYLQLNSLRAEDTAMYYCVSNWASGSTGDYWGQGTLVTVSS
- IC50 of neutralisation of SARS-CoV-2 S pseudovirus [1]: 6 µg/mL
- Kd [2]: 63.8 nM
